Source: article PMC5145273

Target: FabL9, soluble purified Fab
Test: ELISA

## GluA4_(flip) ligand-binding domain (LBD), rat (domain or fragment)
  IC50: 0.26 µM
